The record followed here is publication PMC3267895.

In series [1] the target is T1, NPH-II (vaccinia virus, UniProt P12927 1-676). As to the kind of experiment: smFRET.
Series [2] has as its target T1, NPH-II. The experiment in a line: smFRET. This is another data set of the same source.
Series [3] addresses T1, NPH-II. As to the kind of experiment: smFRET. This is another data set of the same source.
The target in series [4] is T1, NPH-II. The experiment in a line: sucrose gradient centrifugation.
The target in series [5] is T1, NPH-II. The experiment in a line: sucrose gradient centrifugation. This is another data set of the same source.
Series [6] deals with T1, NPH-II. As to the kind of experiment: sucrose gradient centrifugation. This is another data set of the same source.

Where two headings read alike, the source gives them in different places.

Usually Kd stands for a measure of binding affinity in units of concentration. A lower Kd goes with a tighter complex.

B1: smFRET bipartite RNA with two extra 3' U on complementary strand (dsRNA)
RNA 1: AGCACCGUAAAGACGCAGCCAGCAUCAAUGACAUCAGCAUCAA
RNA 2: GCUGCGUCUUUACGGUGCUUU
modifications: 3' biotin on strand 2
Take B1: the dissociation constant Kd is 20.8 ± 7.5 nM with NPH-II [1], less than 0.01 nM in the series with NPH-II [2] and 0.91 ± 0.12 nM with NPH-II [3].

B2: bipartite RNA, 19 bp duplex with 24 nt 3' overhang (dsRNA)
RNA 1: B1 RNA 1
RNA 2: GCUGCGUCUUUACGGUGCU
Turning to B2, the binding result with NPH-II [4] is “binds”.

B3: blunt-end duplex RNA 19 bp (dsRNA)
RNA 1: AGCACCGUAAAGACGCAGC
RNA 2: GCUGCGUCUUUACGGUGCU
Take B3: the binding result in the series with NPH-II [5] is listed as “binds”.
Turning to CAGCAUCAAUGACAUCAGCAUCAA (ssRNA) [single-stranded RNA 24 nt (overhang)], in the series with NPH-II [6], the binding result is “binds”.
